Here are results for 1 substance from article PMC8800115.

The target in one experiment is K63-linked diubiquitin (UniProt P0CG48). The experiment in a line: ITC; MicroCal iTC200; proteins dialysed in 20 mM Hepes pH 7.5, 150 mM NaCl, 200 μM TCEP; 2-μl injections; who was in the cell is not given; ranges of Kd are from fits with N fixed to 1 (first value: active concentration in the cell varied, second: in the syringe); Kd of S470R and E467R/S470R called apparent.

The target of experiment [1] is K63-linked tetraubiquitin (UniProt P0CG48). The experiment is described as above.

As to “ASCC2 CUE domain (construct of the ITC experiments of Figure 2) (from UniProt Q9H1I8 463-525) (domain or fragment)”, in the experiment with K63-linked diubiquitin, the Kd fell in the range of 8.7 to 10.4 µM and the stoichiometry N (ASCC2 CUE domain per K63Ub2) stood at 1. For the same substance, the stoichiometry N (ASCC2 CUE domains per K63Ub4) in experiment [1] came to 2.
